# Test results from the supplement of paper PMC12764529.
# ± gives the half width of the 95% confidence interval.
# Assay: folding stability dG unfold from chymotrypsin proteolysis; higher = more stable
# Summary of the method: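 Digests were run with trypsin and chymotrypsin at 11 concentrations in threefold dilutions, plus a no-protease condition, on designed mini-proteins in a PA-tagged cDNA display construct. The mini-proteins were under 80 residues, had no cysteine, and were kept only when AlphaFold2 dimer inter-PAE was above 15. After sequencing, Bayesian fitting of the counts gave K50, from which unfolding free energy was derived against a sequence-predicted unfolded-state K50 and a shared folded-state K50, per protease or combined.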
row,Sequence,folding stability dG unfold [kJ/mol]
1,SAGGMVEIELEVDGKKIKITYDKETGKITIEIDGKKIEVELPEEDKGKSKEELLKKALEKAKEELKKSAGGS [r16_215_TrROS_Hall],10.3 ± 0.46
2,SPVKIRIIVPKGMDPEMANFIVKEIMKHLGLPPGAPVEILPWEDLQKNPDVHQALEEAEKEGADIVILIRSA [r9_1147_TrROS],17.4 ± 0.669
3,SAGGNPDGKPDGGVSFVVNVAKTKPYIDPSTGKVYPVVEVKPVVIEVKKDEKLDLSELLKNTDYISVSSAGG [r13_753_TrMRF],0.594 ± 0.544
4,SAGGSAMPIELDLVIEIPIDAHPDQTVEDLVEEIAERIRRLLPPDTVVELRVHLHPELGVALADVSSAGGSA [r15_739_TrMRF],0.49 ± 0.364
5,SAGGSAGGKLPKNIEKIEFNKKTNIIKVKVKSLEDLKKLAEKLNFEIVSVEEKDGYIYIKIKKKSAGGSAGG [r6_380_TrROS_Hall],11.7 ± 0.113
6,SAGGAPLVPVSTETYTVKDSKGNEVTITIETLPDGSYRITITYPNGEVKEYEFPSKEEAEKLEITVNPSAGG [r13_109_JUSTAS],15.3 ± 0.418
7,SKPTLTLKLTVVVKDENGEKKTVTLTIPVSEEELEKLLKEIAKELGLKDVKVVKIEKNKNGFIKITVEVKSA [r9_1101_TrROS_Hall],9.89 ± 0.138
8,SAGGMIEKIKEAAKKLGLKVKIEEVKFDKKTKKVTIKITLENGKKIEITVEMSEEELLNAIKELIKKSAGGS [r16_153_TrROS_Hall],15.1 ± 0.381
9,SAGGSAGGMPVEVTETPVGTFPDGSTVTRTETVLPGGEVLVETTVTYPDGSSTTTTRRVPPELASAGGSAGG [r6_263_JUSTAS],10.1 ± 0.247
10,SAGGSPIQTAVTTNTLGNETITTTTLVPPEAVATSVTTVYEPDPNSDNYVVKSVLTTTTSTLPPSDAASAGG [r13_568_JUSTAS],0.254 ± 0.28
11,SAGGSPDIKFNEVKVELPTAETEAEFEKNTYKVEVPAPPELDITTTTTLTTSSGSTTTTTSTSPLELPSAGG [r13_191_JUSTAS],-4.64 ± 3.31
12,SAGGSMTITYDPETNTVTILDPNIPPNEPRPVTLTLPDGEKYTLTLRPVPGNGWTGTLTWKSTKDGSAGGSA [r2_89_TrMRF],6.45 ± 0.795
13,SAGGSAGLPEAIAEAIARELQAEPGYELDVEAEVDPETGTLHIRARVRLPDDDTWFELEITVPLPASAGGSA [r15_464_TrMRF],13.5 ± 0.502
14,SAGGSAGGSAGGMPIPIIVIPTPPNGNFTPEQIKEVAEKLNDPVVLTEESDNSRVILVGSAGGSAGGSAGGS [r10_642_TrMRF],-0.564 ± 0.335
15,SANPGKPVTIEIPVEEIRQKLNEENPDKPLTPSELKDLAKELIQRQGFPFKDVEIKSVNPGNGWIKIKVSAG [r14_303_TrROS],-2.25 ± 1.8
16,SAGGSAEEARALAEQVREEVRAAHAPDEVVTVTVELPDGTRVEVTFDAAGEVLSVTIYRPDGTPELSAGGSA [r2_84_JUSTAS],9.5 ± 0.205

row,Sequence,folding stability dG unfold [kJ/mol]
1,MRVVFEATYTDPEGVPVTETFVIPEEVLEEIEREGRPITREELVELAEEIIRDYTKEHDADVEFRFVEFEPS [r1_174_TrMRF],10.54 ± 0.105
2,SAGGSASMARVEAIAEEIAPRLKAEGRPIARIEVTATRLPDGTVVVPITLTTPDGTPVYTFEVVVESAGGSA [r15_232_JUSTAS],7.27 ± 0.134
3,SQVKIHIPFEVEYSPENGNYFFMIRVRYPGKERPIMFPYKDPEQMREWARTIAKELAKENPDNVEIEIWWSA [r9_1148_TrROS],11.9 ± 0.397
4,SAGGDSVYIPGSISEAIDALRENPNKTVHIMSPDGYYIKITVKWDGDGDYKIDIKWQPPPPPPDPEDKSAGG [r13_56_TrROS],9.62 ± 0.879
5,SAGGSAGGSAMTFFVAVVKTETRVLPDGSLETRSSIEVKPVPAIPAEDLIKKLGLPLEDIASAGGSAGGSAG [r3_338_TrMRF],13.1 ± 0.222
6,SAGGSAGGSAIKPGETIPIKIGNFPIKITVYGDWVEITFPNGRKIRFRVAVDDGKLEIDIYFSAGGSAGGSA [r18_172_TrROS],18 ± 0.586
7,SAGGSAGGSAKPTFDNVENLSLEELAKKIAKEAAEKYPDAKNVEVEFRLPNGKSYRIVVDVDSAGGSAGGSA [r18_449_TrMRF],5.28 ± 0.502
8,SAGMLSSETVPFPDSEITIEYDPETGTVKITTTTTTSSPSLDYRTGKPGSVSSSTTTSFEVEAEPGAELSAG [r5_195_JUSTAS],1.35 ± 0.711
9,SAGGFLENLPDEVVEAALAAVLPDGSRVFVALRKGPDRPRVLIITFDANGVPRDIRELDPEEALKALEASAG [r5_73_TrMRF],11.5 ± 0.117
10,SAMKVYEIPIEIPISKYKPSDIIAALKKALDKLNIPFPEEIIKELTIISIKTGGNISTAIKTLLENGLLSAG [r14_364_TrMRF],5.41 ± 0.402
11,SMKISSFTLAPGGEAVIELTFESGETRRVRLTGLTSKAEVEAEAKRLQEELEKGNPRPIKTVTVSPAPPASA [r9_1135_JUSTAS],3.21 ± 1
12,SAGGSAGGSAGGMKLVITLKDPNSDKTYTVTLPIEDKSPEEVIQEIEEKLGVEVVEVKPESAGGSAGGSAGG [r7_590_JUSTAS],8.54 ± 0.0879
13,SAGGSAKKKKGKKKKKIKKIKIKLKLPPGAEIVKIDKEKGVIYIRNKKTNKIYKIDLKTGKIVEIPSAGGSA [r15_452_TrROS_Hall],15.3 ± 1.09
14,SAGGSAGGSGDGDYKNDPNGEQERKPKPPPVPPILVFKVELDIDANGNLDLSPDLGWFPPDAISAGGSAGGS [r12_1027_TrROS],4.32 ± 0.389
15,SAGGSAGGSAGGATFKPGETVRVEVEVELRVFKVDEETGEIVEETETVTVRVEVEVRLESAGGSAGGSAGGS [r10_122_TrROS_Hall],9.71 ± 0.222
16,SAGGMMKIKITIINENGETLTIEIEVPEEDLEEAIKALEDELKKKGYEIESIERVNGKITITVRIKPSAGGS [r16_662_TrROS_Hall],17 ± 0.251
